Measured values: paper PMC9482650, “Quantitative fragmentomics allow affinity mapping of interactomes” (Nature Communications, 2022)

Columns and labels:
Assay in all cases: holdup assay
Set-up in all cases: key: below the threshold = too weak to quantify, mostly under pKd 3.1 to 4
Settings in all cases: plain residues with an end cap or a label only (N-terminal biotin on a linker: ttds)
Inadl_8, Q8NI35 = target: Inadl_8, Q8NI35
GRIP1_4, Q9Y3R0 = target: T1, GRIP1_4, Q9Y3R0
T1 sequence (Q9Y3R0 467-571, limits assumed, looked up): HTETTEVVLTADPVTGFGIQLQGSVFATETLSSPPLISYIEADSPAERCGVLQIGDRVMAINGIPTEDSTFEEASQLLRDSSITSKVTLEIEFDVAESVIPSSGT

LIMK2, P53671 = target: LIMK2, P53671
SYNJ2BP, P57105 = target: T2, SYNJ2BP, P57105
T2 sequence (P57105 8-110, limits assumed, looked up): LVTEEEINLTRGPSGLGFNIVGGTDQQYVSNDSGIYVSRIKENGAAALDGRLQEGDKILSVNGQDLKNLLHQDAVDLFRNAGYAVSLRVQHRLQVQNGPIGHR

MPDZ_12, O75970 = target: T3, MPDZ_12, O75970
T3 sequence (O75970 1857-1958, limits assumed, looked up): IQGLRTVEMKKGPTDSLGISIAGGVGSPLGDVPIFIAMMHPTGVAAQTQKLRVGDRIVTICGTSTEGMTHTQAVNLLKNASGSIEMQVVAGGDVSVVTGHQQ

HTRA2, O43464 = target: HTRA2, O43464
TJP1_3, Q07157 = target: TJP1_3, Q07157
SNTA1, Q13424 = target: T4, SNTA1, Q13424
T4 sequence (Q13424 82-180, limits assumed, looked up): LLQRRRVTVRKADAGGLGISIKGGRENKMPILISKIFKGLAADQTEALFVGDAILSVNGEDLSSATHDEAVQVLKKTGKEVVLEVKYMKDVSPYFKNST

PDZRN4_1, Q6ZMN7 = target: PDZRN4_1, Q6ZMN7
GRASP, Q7Z6J2 = target: GRASP, Q7Z6J2
GORASP2, Q9H8Y8 = target: GORASP2, Q9H8Y8
LIN7A, O14910 = target: T5, LIN7A, O14910
T5 sequence (O14910 103-200, limits assumed, looked up): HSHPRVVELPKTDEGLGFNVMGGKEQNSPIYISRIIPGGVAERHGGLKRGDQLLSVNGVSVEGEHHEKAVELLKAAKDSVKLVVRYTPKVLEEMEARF

MAGI2_5, Q86UL8 = target: MAGI2_5, Q86UL8
SNTB1, Q13884 = target: T6, SNTB1, Q13884
T6 sequence (Q13884 107-205, limits assumed, looked up): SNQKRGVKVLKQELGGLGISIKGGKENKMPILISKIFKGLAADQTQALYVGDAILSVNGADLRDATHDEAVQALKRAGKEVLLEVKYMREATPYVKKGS

LNX2_3, Q8N448 = target: T7, LNX2_3, Q8N448
T7 sequence (Q8N448 463-564, limits assumed, looked up): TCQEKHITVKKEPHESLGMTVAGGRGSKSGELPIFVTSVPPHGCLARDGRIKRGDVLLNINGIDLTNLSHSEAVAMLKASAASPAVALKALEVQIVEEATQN

PCLO, Q9Y6V0 = target: T8, PCLO, Q9Y6V0
T8 sequence (Q9Y6V0 4491-4600, limits assumed, looked up): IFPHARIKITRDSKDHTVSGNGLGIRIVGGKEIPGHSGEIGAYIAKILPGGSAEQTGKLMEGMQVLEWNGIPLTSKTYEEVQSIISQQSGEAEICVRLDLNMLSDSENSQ

IL16_3, Q14005 = target: IL16_3, Q14005
PDZRN3_1, Q9UPQ7 = target: T9, PDZRN3_1, Q9UPQ7
T9 sequence (Q9UPQ7 244-349, limits assumed, looked up): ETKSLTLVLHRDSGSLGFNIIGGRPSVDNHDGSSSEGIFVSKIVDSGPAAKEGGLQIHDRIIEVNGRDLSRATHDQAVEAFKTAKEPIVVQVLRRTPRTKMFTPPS

NHERF3_3, Q5T2W1 = target: T10, NHERF3_3, Q5T2W1
T10 sequence (Q5T2W1 238-333, limits assumed, looked up): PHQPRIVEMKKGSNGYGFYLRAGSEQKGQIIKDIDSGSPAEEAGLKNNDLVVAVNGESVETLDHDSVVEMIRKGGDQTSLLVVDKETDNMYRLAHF

APBA3_1, O96018 = target: T11, APBA3_1, O96018
T11 sequence (O96018 389-490, limits assumed, looked up): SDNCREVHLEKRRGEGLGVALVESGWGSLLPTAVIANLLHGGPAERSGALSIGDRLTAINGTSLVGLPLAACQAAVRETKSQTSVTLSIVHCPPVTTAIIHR

IL16_4, Q14005 = target: IL16_4, Q14005
LRRC7, Q96NW7 = target: T12, LRRC7, Q96NW7
T12 sequence (Q96NW7 1440-1537, limits assumed, looked up): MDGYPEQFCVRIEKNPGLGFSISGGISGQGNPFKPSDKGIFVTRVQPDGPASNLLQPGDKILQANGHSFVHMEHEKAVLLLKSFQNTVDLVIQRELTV

ARHGEF12, Q9NZN5-2 = target: ARHGEF12, Q9NZN5-2
LNX2_2, Q8N448 = target: T13, LNX2_2, Q8N448
T13 sequence (Q8N448 334-432, limits assumed, looked up): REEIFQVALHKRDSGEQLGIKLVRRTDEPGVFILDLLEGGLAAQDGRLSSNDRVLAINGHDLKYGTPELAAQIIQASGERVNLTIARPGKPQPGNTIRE

Sequence of Inadl_8, Q8NI35 (Q8NI35 1425-1530): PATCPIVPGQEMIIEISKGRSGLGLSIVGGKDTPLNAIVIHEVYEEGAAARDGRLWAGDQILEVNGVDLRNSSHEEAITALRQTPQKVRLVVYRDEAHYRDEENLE
Sequence of GRASP, Q7Z6J2 (Q7Z6J2 96-193): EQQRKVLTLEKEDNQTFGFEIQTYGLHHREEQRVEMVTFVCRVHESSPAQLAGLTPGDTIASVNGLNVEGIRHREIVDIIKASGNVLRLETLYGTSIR
Sequence of PDZRN4_1, Q6ZMN7 (Q6ZMN7 213-318): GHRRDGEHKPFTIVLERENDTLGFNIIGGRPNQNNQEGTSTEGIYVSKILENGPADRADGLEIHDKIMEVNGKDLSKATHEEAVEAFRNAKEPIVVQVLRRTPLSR
Sequence of IL16_3, Q14005 (Q14005 1107-1207): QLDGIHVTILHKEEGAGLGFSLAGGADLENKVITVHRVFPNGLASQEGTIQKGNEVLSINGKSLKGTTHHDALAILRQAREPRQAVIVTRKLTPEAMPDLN
Sequence of LIMK2, P53671 (P53671 143-248): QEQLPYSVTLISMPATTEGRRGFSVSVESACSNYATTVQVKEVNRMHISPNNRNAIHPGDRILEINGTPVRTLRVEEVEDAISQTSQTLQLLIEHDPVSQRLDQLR
Sequence of HTRA2, O43464 (O43464 355-458): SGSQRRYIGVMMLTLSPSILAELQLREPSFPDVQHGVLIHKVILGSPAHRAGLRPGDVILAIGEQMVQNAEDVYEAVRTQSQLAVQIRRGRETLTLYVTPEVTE
Sequence of MAGI2_5, Q86UL8 (Q86UL8 915-1017): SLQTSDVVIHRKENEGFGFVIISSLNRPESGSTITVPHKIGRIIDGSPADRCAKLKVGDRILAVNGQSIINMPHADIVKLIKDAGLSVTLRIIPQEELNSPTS
Sequence of ARHGEF12, Q9NZN5-2 (Q9NZN5 other isoform, or with tags, fused parts or gaps): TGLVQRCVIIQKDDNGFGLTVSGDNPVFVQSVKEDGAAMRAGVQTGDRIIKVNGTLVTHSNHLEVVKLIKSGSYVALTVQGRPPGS
Sequence of TJP1_3, Q07157 (Q07157 416-512): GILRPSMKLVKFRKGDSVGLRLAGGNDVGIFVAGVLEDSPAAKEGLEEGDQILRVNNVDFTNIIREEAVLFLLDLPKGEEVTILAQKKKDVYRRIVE
Sequence of IL16_4, Q14005 (Q14005 1229-1329): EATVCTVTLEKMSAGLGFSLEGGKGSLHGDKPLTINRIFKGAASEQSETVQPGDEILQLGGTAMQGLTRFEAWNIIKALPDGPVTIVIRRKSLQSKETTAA

Binder: STLTIFETAL [ABCC4, O15439]
- pKd (Inadl_8, Q8NI35): below the threshold
- pKd (GRIP1_4, Q9Y3R0): below the threshold
- pKd (LIMK2, P53671): below the threshold
- pKd (SYNJ2BP, P57105): 5.56
- pKd (MPDZ_12, O75970): below the threshold
- pKd (HTRA2, O43464): 3.68
- pKd (TJP1_3, Q07157): below the threshold
- pKd (SNTA1, Q13424): 4.75
- pKd (PDZRN4_1, Q6ZMN7): 5.42
- pKd (GRASP, Q7Z6J2): 4.74
- pKd (GORASP2, Q9H8Y8): 3.82
- pKd (LIN7A, O14910): 3.66
- pKd (MAGI2_5, Q86UL8): 4.69
- pKd (SNTB1, Q13884): 5.05
- pKd (LNX2_3, Q8N448): below the threshold
- pKd (PCLO, Q9Y6V0): below the threshold
- pKd (IL16_3, Q14005): below the threshold
- pKd (PDZRN3_1, Q9UPQ7): 5.46
- pKd (NHERF3_3, Q5T2W1): 3.61
- pKd (APBA3_1, O96018): below the threshold
- pKd (IL16_4, Q14005): below the threshold
- pKd (LRRC7, Q96NW7): 4.39
- pKd (ARHGEF12, Q9NZN5-2): 5.21
- pKd (LNX2_2, Q8N448): below the threshold
